Test results as given in publication PMC3811051 (Nature methods, 2013).

Target: the molecule itself
Assay: SEC

B1: LanYFP, yellow fluorescent protein from Branchiostoma lanceolatum (natural protein, UniProt B1PNC0 1-219, looked up)
chain: MSLPATHELHIFGSFNGVDFDMVGRGTGNPNDGYEELNLKSTKGALQFSPWILVPQIGYGFHQYLPFPDGMSPFQAAMKDGSGYQVHRTMQFEDGASLTSNYRYTYEGSHIKGEFQVIGTGFPADGPVMTNSLTAADWCVTKMLYPNDKTIISTFDWTYTTGSGKRYQSTVRTNYTFAKPMAANILKNQPMFVFRKTELKHSKTELNFKEWQKAFTDVM
- stoichiometry N: 4
